{"source": "patent US20190241648A1", "about": "(STATEN BIOTECHNOLOGY B V, published 2019)", "binders": {"B1": {"name": "anti-ApoC3 antibody 6A6 (antibody, V domains shown)", "VH": "EVQLVESGGGLVQPGGSLRLSCAASGFTFSSYAGRWVRQVPGKGLEWVSSINAGGGSTSYADSVKGRFTISRDNAKNTLYLQMNSLKPEDTAKYYCTQNSYRYWGQGTRVAVSS", "VL": "DVVLTQTPGSLSVVPGESASISCKASQSLIHTDGKTYLYWLLQKPGQRPQLLIYQVSSHESGVPDRFTGSGSGTDFTLKISGVKAEDAGVYYCAQATYNPRTFGQGTKLEIK", "notes": "it was detected with goat anti-human IgG (Fc); also called mAb 6A6; llama antibody 6A6"}}, "test_in_all_cases": "peptide microarray", "key": {"ApoC3 peptide … E70A": {"molecular_target": "ApoC3 peptide … E70A (human, cyclic constrained)", "description": "(§1) F64 was completely variable.\n(§2) Pre: staining of one of the ApoC3 peptide microarrays was done with the secondary antibody goat anti-human IgG (Fe) DyLight680 (1:5000) and control antibody mouse monoclonal anti-HA (12CA5) DyLight800 (1:2000) to investigate background interactions of the secondary antibody with the antigen-derived peptides that could interfere with the main assays. Subsequent incubation of other ApoC3 peptide microarrays with antibody samples was followed by staining with secondary and control antibodies as well as read-out at scanning intensities of 7/7 (red/green). The additional HA peptides framing the peptide arrays were stained as internal quality control to confirm the assay quality and the peptide microarray integrity."}, "ApoC3 peptide … E70C": {"molecular_target": "ApoC3 peptide … E70C (human, cyclic constrained)", "description": "as §1, §2"}, "ApoC3 peptide … V71C": {"molecular_target": "ApoC3 peptide … V71C (human, cyclic constrained)", "description": "as §1, §2"}, "ApoC3 peptide … F61D": {"molecular_target": "T1, ApoC3 peptide … F61D (human, cyclic constrained)", "T1 peptide": "DKDSEFWDLDPEV", "description": "as §1, §2"}, "ApoC3 peptide … S62D": {"molecular_target": "ApoC3 peptide … S62D (human, cyclic constrained)", "description": "as §1, §2"}, "ApoC3 peptide … W65D": {"molecular_target": "ApoC3 peptide … W65D (human, cyclic constrained)", "description": "as §1, §2"}, "ApoC3 peptide … P69E": {"molecular_target": "T2, ApoC3 peptide … P69E (human, not fully specified (bridges); also: cyclic constrained)", "T2 peptide": "DKFSEFWDLDEEV", "description": "as §1, §2"}, "ApoC3 peptide … K60F": {"molecular_target": "T3, ApoC3 peptide … K60F (human, not fully specified (bridges); also: cyclic constrained)", "T3 peptide": "DFFSEFWDLDPEV", "description": "as §1, §2"}, "ApoC3 peptide … L67F": {"molecular_target": "T4, ApoC3 peptide … L67F (human, not fully specified (bridges); also: cyclic constrained)", "T4 peptide": "DKFSEFWDFDPEV", "description": "as §1, §2"}, "ApoC3 peptide … V71F": {"molecular_target": "ApoC3 peptide … V71F (human, cyclic constrained)", "description": "as §1, §2"}, "ApoC3 peptide … E63G": {"molecular_target": "ApoC3 peptide … E63G (human, cyclic constrained)", "description": "as §1, §2"}, "ApoC3 peptide … D66G": {"molecular_target": "T5, ApoC3 peptide … D66G (human, not fully specified (bridges); also: cyclic constrained)", "T5 peptide": "DKFSEFWGLDPEV", "description": "as §1, §2"}, "ApoC3 peptide … E70G": {"molecular_target": "T6, ApoC3 peptide … E70G (human, not fully specified (bridges); also: cyclic constrained)", "T6 peptide": "DKFSEFWDLDPGV", "description": "as §1, §2"}, "ApoC3 peptide … F64H": {"molecular_target": "T7, ApoC3 peptide … F64H (human, not fully specified (bridges); also: cyclic constrained)", "T7 peptide": "DKFSEHWDLDPEV", "description": "as §1, §2"}, "ApoC3 peptide … P69I": {"molecular_target": "T8, ApoC3 peptide … P69I (human, not fully specified (bridges); also: cyclic constrained)", "T8 peptide": "DKFSEFWDLDIEV", "description": "as §1, §2"}, "ApoC3 peptide … D68K": {"molecular_target": "T9, ApoC3 peptide … D68K (human, cyclic constrained)", "T9 peptide": "DKFSEFWDLKPEV", "description": "as §1, §2"}, "ApoC3 peptide … K60L": {"molecular_target": "T10, ApoC3 peptide … K60L (human, not fully specified (bridges); also: cyclic constrained)", "T10 peptide": "DLFSEFWDLDPEV", "description": "as §1, §2"}, "ApoC3 peptide … D68L": {"molecular_target": "T11, ApoC3 peptide … D68L (human, cyclic constrained)", "T11 peptide": "DKFSEFWDLLPEV", "description": "as §1, §2"}, "ApoC3 peptide … P69L": {"molecular_target": "T12, ApoC3 peptide … P69L (human, not fully specified (bridges); also: cyclic constrained)", "T12 peptide": "DKFSEFWDLDLEV", "description": "as §1, §2"}, "ApoC3 peptide … V71L": {"molecular_target": "ApoC3 peptide … V71L (human, cyclic constrained)", "description": "as §1, §2"}, "ApoC3 peptide … W65M": {"molecular_target": "T13, ApoC3 peptide … W65M (human, not fully specified (bridges); also: cyclic constrained, ring type and places not given here)", "T13 peptide": "DKFSEFMDLDPEV", "description": "as §1, §2"}, "ApoC3 peptide … K60N": {"molecular_target": "T14, ApoC3 peptide … K60N (human, not fully specified (bridges); also: cyclic constrained)", "T14 peptide": "DNFSEFWDLDPEV", "description": "as §1, §2"}, "ApoC3 peptide … D66N": {"molecular_target": "T15, ApoC3 peptide … D66N (human, not fully specified (bridges); also: cyclic constrained)", "T15 peptide": "DKFSEFWNLDPEV", "description": "as §1, §2"}, "ApoC3 peptide … L67N": {"molecular_target": "T16, ApoC3 peptide … L67N (human, not fully specified (bridges); also: cyclic constrained)", "T16 peptide": "DKFSEFWDNDPEV", "description": "as §1, §2"}, "ApoC3 peptide … K60P": {"molecular_target": "T17, ApoC3 peptide … K60P (human, not fully specified (bridges); also: cyclic constrained)", "T17 peptide": "DPFSEFWDLDPEV", "description": "as §1, §2"}, "ApoC3 peptide … S62R": {"molecular_target": "ApoC3 peptide … S62R (human, cyclic constrained)", "description": "as §1, §2"}, "ApoC3 peptide … P69R": {"molecular_target": "ApoC3 peptide … P69R (human, cyclic constrained)", "description": "as §1, §2"}, "ApoC3 peptide … K60S": {"molecular_target": "T18, ApoC3 peptide … K60S (human, not fully specified (bridges); also: cyclic constrained)", "T18 peptide": "DSFSEFWDLDPEV", "description": "as §1, §2"}, "ApoC3 peptide … D68S": {"molecular_target": "T19, ApoC3 peptide … D68S (human, not fully specified; cyclic constrained)", "T19 peptide": "DKFSEFWDLSPEV", "description": "as §1, §2"}, "ApoC3 peptide … P69S": {"molecular_target": "ApoC3 peptide … P69S (human, cyclic constrained)", "description": "as §1, §2"}, "ApoC3 peptide … S62T": {"molecular_target": "ApoC3 peptide … S62T (human, cyclic constrained)", "description": "as §1, §2"}, "ApoC3 peptide … D68T": {"molecular_target": "ApoC3 peptide … D68T (human, cyclic constrained)", "description": "as §1, §2"}, "ApoC3 peptide … S62V": {"molecular_target": "ApoC3 peptide … S62V (human, cyclic constrained)", "description": "as §1, §2"}, "ApoC3 peptide … E70V": {"molecular_target": "T20, ApoC3 peptide … E70V (human, cyclic constrained)", "T20 peptide": "DKFSEFWDLDPVV", "description": "as §1, §2"}, "ApoC3 peptide … K60W": {"molecular_target": "T21, ApoC3 peptide … K60W (human, not fully specified (bridges); also: cyclic constrained)", "T21 peptide": "DWFSEFWDLDPEV", "description": "as §1, §2"}, "ApoC3 peptide … E63W": {"molecular_target": "ApoC3 peptide … E63W (human, cyclic constrained)", "description": "as §1, §2"}, "ApoC3 peptide … L67W": {"molecular_target": "T22, ApoC3 peptide … L67W (human, not fully specified (bridges); also: cyclic constrained)", "T22 peptide": "DKFSEFWDWDPEV", "description": "as §1, §2"}, "ApoC3 peptide … D66Y": {"molecular_target": "T23, ApoC3 peptide … D66Y (human, not fully specified (bridges); also: cyclic constrained)", "T23 peptide": "DKFSEFWYLDPEV", "description": "as §1, §2"}}, "note": "Ends that are not written are not given here.", "data": [{"binder": "B1", "values": [{"measurement": "% of binding to wild-type peptide", "setting": "ApoC3 peptide … E70A", "result": 0.97, "unit": "%"}, {"measurement": "% of binding to wild-type peptide", "setting": "ApoC3 peptide … E70C", "result": 0, "unit": "%"}, {"measurement": "% of binding to wild-type peptide", "setting": "ApoC3 peptide … V71C", "result": 100, "unit": "%"}, {"measurement": "% of binding to wild-type peptide", "setting": "ApoC3 peptide … F61D", "result": 31.3, "unit": "%"}, {"measurement": "% of binding to wild-type peptide", "setting": "ApoC3 peptide … S62D", "result": 35, "unit": "%"}, {"measurement": "% of binding to wild-type peptide", "setting": "ApoC3 peptide … W65D", "result": 130, "unit": "%"}, {"measurement": "% of binding to wild-type peptide", "setting": "ApoC3 peptide … P69E", "result": 152, "unit": "%"}, {"measurement": "% of binding to wild-type peptide", "setting": "ApoC3 peptide … K60F", "result": 83.7, "unit": "%"}, {"measurement": "% of binding to wild-type peptide", "setting": "ApoC3 peptide … L67F", "result": 26.3, "unit": "%"}, {"measurement": "% of binding to wild-type peptide", "setting": "ApoC3 peptide … V71F", "result": 85.4, "unit": "%"}, {"measurement": "% of binding to wild-type peptide", "setting": "ApoC3 peptide … E63G", "result": 20.5, "unit": "%"}, {"measurement": "% of binding to wild-type peptide", "setting": "ApoC3 peptide … D66G", "result": 0, "unit": "%"}, {"measurement": "% of binding to wild-type peptide", "setting": "ApoC3 peptide … E70G", "result": 1.26, "unit": "%"}, {"measurement": "% of binding to wild-type peptide", "setting": "ApoC3 peptide … F64H", "result": 107, "unit": "%"}, {"measurement": "% of binding to wild-type peptide", "setting": "ApoC3 peptide … P69I", "result": 81.9, "unit": "%"}, {"measurement": "% of binding to wild-type peptide", "setting": "ApoC3 peptide … D68K", "result": 0, "unit": "%"}, {"measurement": "% of binding to wild-type peptide", "setting": "ApoC3 peptide … K60L", "result": 89.2, "unit": "%"}, {"measurement": "% of binding to wild-type peptide", "setting": "ApoC3 peptide … D68L", "result": 0, "unit": "%"}, {"measurement": "% of binding to wild-type peptide", "setting": "ApoC3 peptide … P69L", "result": 36.8, "unit": "%"}, {"measurement": "% of binding to wild-type peptide", "setting": "ApoC3 peptide … V71L", "result": 78, "unit": "%"}, {"measurement": "% of binding to wild-type peptide", "setting": "ApoC3 peptide … W65M", "result": 19.1, "unit": "%"}, {"measurement": "% of binding to wild-type peptide", "setting": "ApoC3 peptide … K60N", "result": 139, "unit": "%"}, {"measurement": "% of binding to wild-type peptide", "setting": "ApoC3 peptide … D66N", "result": 0, "unit": "%"}, {"measurement": "% of binding to wild-type peptide", "setting": "ApoC3 peptide … L67N", "result": 19.8, "unit": "%"}, {"measurement": "% of binding to wild-type peptide", "setting": "ApoC3 peptide … K60P", "result": 157, "unit": "%"}, {"measurement": "% of binding to wild-type peptide", "setting": "ApoC3 peptide … S62R", "result": 37.2, "unit": "%"}, {"measurement": "% of binding to wild-type peptide", "setting": "ApoC3 peptide … P69R", "result": 17.4, "unit": "%"}, {"measurement": "% of binding to wild-type peptide", "setting": "ApoC3 peptide … K60S", "result": 156, "unit": "%"}, {"measurement": "% of binding to wild-type peptide", "setting": "ApoC3 peptide … D68S", "result": 0.57, "unit": "%"}, {"measurement": "% of binding to wild-type peptide", "setting": "ApoC3 peptide … P69S", "result": 75.6, "unit": "%"}, {"measurement": "% of binding to wild-type peptide", "setting": "ApoC3 peptide … S62T", "result": 139, "unit": "%"}, {"measurement": "% of binding to wild-type peptide", "setting": "ApoC3 peptide … D68T", "result": 0.69, "unit": "%"}, {"measurement": "% of binding to wild-type peptide", "setting": "ApoC3 peptide … S62V", "result": 93.6, "unit": "%"}, {"measurement": "% of binding to wild-type peptide", "setting": "ApoC3 peptide … E70V", "result": 0.27, "unit": "%"}, {"measurement": "% of binding to wild-type peptide", "setting": "ApoC3 peptide … K60W", "result": 78.6, "unit": "%"}, {"measurement": "% of binding to wild-type peptide", "setting": "ApoC3 peptide … E63W", "result": 1.91, "unit": "%"}, {"measurement": "% of binding to wild-type peptide", "setting": "ApoC3 peptide … L67W", "result": 1.26, "unit": "%"}, {"measurement": "% of binding to wild-type peptide", "setting": "ApoC3 peptide … D66Y", "result": 0, "unit": "%"}]}]}
